Assay results taken from US20130224224A1 (Boehringer Ingelheim, published 2013).
Numbering of substitutions follows the chain as printed. Numbers in names are those of the source.

T1: cynomolgus CX3CR1 (cynomolgus, UniProt P49238 1-355 (human entry))
T1 construct: transiently expressed on HEK293T cells; also called cyCX3CR1; cyno CX3CR1
T1 chain: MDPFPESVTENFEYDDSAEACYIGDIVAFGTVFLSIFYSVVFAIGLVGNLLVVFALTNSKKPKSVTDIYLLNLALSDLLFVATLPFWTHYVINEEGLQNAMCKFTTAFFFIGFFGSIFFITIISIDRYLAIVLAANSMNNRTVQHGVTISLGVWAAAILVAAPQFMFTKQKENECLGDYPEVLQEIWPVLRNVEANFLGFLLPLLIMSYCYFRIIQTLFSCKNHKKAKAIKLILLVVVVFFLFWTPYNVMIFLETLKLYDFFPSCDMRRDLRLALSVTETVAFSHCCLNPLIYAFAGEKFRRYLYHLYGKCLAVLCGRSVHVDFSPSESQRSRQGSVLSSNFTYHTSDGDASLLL

T2: human CX3CR1 (human, UniProt P49238 1-355)
T2 construct: overexpressed on CHO, BA/F3 or HEK293T cells; also called huCX3CR1; hCX3CR1
T2 sequence: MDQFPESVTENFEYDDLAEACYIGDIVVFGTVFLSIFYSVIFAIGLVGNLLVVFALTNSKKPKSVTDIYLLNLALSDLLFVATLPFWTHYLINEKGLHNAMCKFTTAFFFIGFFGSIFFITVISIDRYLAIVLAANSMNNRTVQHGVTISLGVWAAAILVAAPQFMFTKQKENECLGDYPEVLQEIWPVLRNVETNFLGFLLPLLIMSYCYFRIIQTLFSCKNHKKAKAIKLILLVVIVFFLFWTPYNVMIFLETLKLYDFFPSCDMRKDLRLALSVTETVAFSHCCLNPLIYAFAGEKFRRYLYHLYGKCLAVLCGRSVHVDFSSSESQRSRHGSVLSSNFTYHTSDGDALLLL

B1: CX3CR1BIIPMP54B3 (VHH)
VHH: EVQLVESGGGSVQAGESLRLSCAASGSIFSSNAMAWYRQAPGKQRDLVAAINSVGITKYADSVKGRFTISRDNAKNTVYLQMNSLKPEDTAVYYCTSDPRRGWDTRYWGQGTQVTVSS
notes: also called 54B03; not shown: C-terminal c-myc and His6 tags
B2: CX3CR1BIIPMP54H1 (VHH)
VHH: B1 VHH with S27T, A50G, G55D, I69V, D104N
notes: also called 54H01; not shown: C-terminal c-myc and His6 tags
B3: CX3CR1BIIPMP61G3 (VHH)
VHH: B1 VHH with E1K, V12M, N83M
notes: also called 61G03; not shown: C-terminal c-myc and His6 tags
B4: CX3CR1BIIPMP54D8 (VHH)
VHH: B1 VHH with E16G, A50G, Q113L
notes: also called 54D08; CX3CR1BII54D08; not shown: C-terminal c-myc and His6 tags
B5: CX3CR1BIIPMP61G4 (VHH)
VHH: B1 VHH with E1K, E16G, N83M
notes: also called 61G04; not shown: C-terminal c-myc and His6 tags
B6: CX3CR1BIIPMP54A4 (VHH)
VHH: B1 VHH with G9R, A50G
notes: also called 54A04; not shown: C-terminal c-myc and His6 tags
B7: CX3CR1BIIPMP61B2 (VHH)
VHH: B1 VHH with G8R, E16A, A50V, S53T, P99A
notes: also called 61B02; not shown: C-terminal c-myc and His6 tags
B8: CX3CR1BIIPMP61F11 (VHH)
VHH: B1 VHH with E1K, A40P, S70F
notes: not shown: C-terminal c-myc and His6 tags
B9: CX3CR1BIIPMP66G01 (VHH)
VHH: B1 VHH with V2M, A50L, P99G
notes: also called CX3CR1BII66G01; not shown: C-terminal c-myc and His6 tags
B10: CX3CR1BIIPMP61E2 (VHH)
VHH: B1 VHH with A50G, T90M
notes: also called 61E02; not shown: C-terminal c-myc and His6 tags
B11: CX3CR1BII66B02 (N52S, Q108L) (VHH, name in Kabat numbering)
VHH: B1 VHH with Q44R, N52S, I56V, Q113L
B12: CX3CR1BII66B02 (S53P, Q108L) (VHH, name in Kabat numbering)
VHH: B1 VHH with Q44R, S53P, I56V, Q113L
notes: Kabat numbering
B13: CX3CR1BII66B02 (S53G, Q108L) (VHH, name in Kabat numbering)
VHH: B1 VHH with Q44R, S53G, I56V, Q113L
notes: Kabat numbering
B14: CX3CR1BII66B02 (S53T, Q108L) (VHH, name in Kabat numbering)
VHH: B1 VHH with Q44R, S53T, I56V, Q113L
notes: Kabat numbering
B15: CX3CR1BII66B02 (N52T, Q108L) (VHH, name in Kabat numbering)
VHH: B1 VHH with Q44R, N52T, I56V, Q113L
notes: Kabat numbering

Biological target: T1, cynomolgus CX3CR1
Experiment: A647-fractalkine competition FACS, cynomolgus against human CX3CR1
Excerpt: (§1) Periplasmic extracts were screened in a human CX3CR1/human Fractalkine FACS competition assay to assess the blocking capacity of the expressed VHHs. Human CX3CR1 was presented on CHO cells overexpressing CX3CR1. Both a setup using cells harvested from an actively growing culture and a setup using frozen cells was used. As a detection reagent labeled fractalkine was used (R&D Systems, Minneapolis, Minn., USA) labeled with alexa647 (A647-Fractalkine) at a degree of labeling of 1. To setup the assay, first a titration series of the labeled fractalkine was performed on the CHO-huCX3CR1 cells in order to determine the EC50 value for binding. Initially screening was performed at a higher concentration of fractalkine (3 nM) to increase the assay robustness. To increase the sensitivity of the screening to a maximum, the EC30 concentration (1 nM) was chosen for subsequent screening. In brief 50 μl of periplasmic extract was added to 6 nM labeled fractalkine (50 μ;) and 200 000 CHO-huCX3CR1 cells. After one hour incubation at 4 C, cells were washed three times before read out was performed on a FACS Array (Becton Dickinson). First a gate was set on the intact cells as determined from the scatter profile. Next, dead cells were gated out by their fluorescence profile from the PI stain (Sigma, St Louis, US). The fluorescence profile from the alexa647 label was determined for each sample and used for calculation of blocking capacity. As controls, conditions were taken along where there was no VHH present in the peri extract or a known irrelevant VHH and samples were included where excess cold fractalkine was included. For each sample the percentage block was determined using the control samples to determine the assay window.
(§2) For later identified VHHs, a human Fractalkine competition FACS was set up using human or cynomolgus CX3CR1 expressed in HEK293T cells. Both the human and the cynomolgus receptor was transiently transfected in HEK293T cells and transfections were matched by the binding of the labeled ligand, human fractalkine. The competition was evaluated using the EC30 concentration of fractalkine and as such obtained IC50 values are a good estimate of the Ki value, a measure for affinity (Table 22). The experiment was performed as described in Example 4.

Point of comparison: B4, “ratio (cynomolgus/human IC50)” value 0.85. Against it:
- B1 — higher, 7.05
- B2 — higher, 6.48
- B3 — higher, 5.02
- B5 — higher, 4.8
- B6 — lower, 0.64
- B7 — higher, 4.37
- B8 — higher, 3.58
- B9 — higher, 8.29
- B10 — lower, 0.55

biological target: T2, human CX3CR1; experiment: A647-fractalkine competition FACS, HEK293-huCX3CR1
Excerpt: as §1
(§3) The blocking capacity towards the ligand fractalkine of the VHHs was evaluated in a human CX3CR1 competition FACS as outlined in Example 4. Either CHO-huCX3CR1 cells, BA/F3-huCX3CR1 cells or transiently transfected HEK293T cells were used. The amount of labeled ligand used in the different competition setups was also varied. The IC₅₀ values for VHHs blocking the interaction of human fractalkine to human CX3CR1 are depicted in Table 19.

Point of comparison: B10, “% block” value 98%. Against it:
- B1 — lower, 92%
- B2 — lower, 64%
- B3 — lower, 96%
- B4 — lower, 95%
- B5 — lower, 96%
- B6 — higher, 100%
- B7 — lower, 94%
- B8 — lower, 96%
- B9 — higher, 99%

Point of comparison: B3, IC50 0.06 µM. Against it:
- B1 — within 1.5-fold, 0.067 µM
- B2 — 6-fold lower, 0.01 µM
- B4 — within 1.5-fold, 0.084 µM
- B5 — within 1.5-fold, 0.042 µM
- B6 — within 1.5-fold, 0.049 µM
- B7 — 6-fold lower, 0.01 µM
- B8 — within 1.5-fold, 0.046 µM
- B9 — 4.3-fold lower, 0.014 µM
- B10 — within 1.5-fold, 0.082 µM

biological target: T2, human CX3CR1; experiment: A647-fractalkine competition FACS, HEK293T human CX3CR1
Excerpt: as §1, §2

Point of comparison: B8, “% block” value 96%. Against it:
- B1 — lower, 92%
- B2 — lower, 64%
- B3 — the same, 96%
- B4 — lower, 95%
- B5 — the same, 96%
- B6 — higher, 100%
- B7 — lower, 94%
- B9 — higher, 99%
- B10 — higher, 98%

Point of comparison: B4, IC50 0.084 µM. Against it:
- B1 — within 1.5-fold, 0.067 µM
- B2 — 8.4-fold lower, 0.01 µM
- B3 — within 1.5-fold, 0.06 µM
- B5 — 2-fold lower, 0.042 µM
- B6 — 1.7-fold lower, 0.049 µM
- B7 — 8.4-fold lower, 0.01 µM
- B8 — 1.8-fold lower, 0.046 µM
- B9 — 6-fold lower, 0.014 µM
- B10 — within 1.5-fold, 0.082 µM

biological target: T2, human CX3CR1; experiment: A647-fractalkine competition FACS, CHO-huCX3CR1
Excerpt: as §1, §3

Point of comparison: B1, “% block” value 108%. Against it:
- B4 — lower, 101%

Point of comparison: B4, IC50 0.015 µM. Against it:
- B1 — 1.7-fold higher, 0.025 µM

biological target: T2, human CX3CR1; experiment: cell-based or functional assay

Point of comparison: B1, “% block, fractalkine induced chemotaxis” value 73%. Against it:
- B4 — lower, 33%
- B9 — lower, 54%

Point of comparison: B9, “IC50, fractalkine induced chemotaxis” value 0.4 µM. Against it:
- B1 — 4-fold lower, 0.1 µM

biological target: T2, human CX3CR1; experiment: A647-fractalkine competition FACS, BA/F3-huCX3CR1
Excerpt: as §1, §3

Point of comparison: B4, “% block” value 99%. Against it:
- B1 — the same, 99%

Point of comparison: B4, IC50 0.038 µM. Against it:
- B1 — within 1.5-fold, 0.033 µM

biological target: T2, human CX3CR1; experiment: fractalkine competition FACS

Point of comparison: B14, “% block” value 98.1%. Against it:
- B11 — lower, 98%
- B12 — higher, 98.2%
- B13 — higher, 98.3%
- B15 — lower, 98%

Point of comparison: B11, IC50 0.0017 µM. Against it:
- B12 — 2.1-fold lower, 0.0008 µM
- B13 — within 1.5-fold, 0.0012 µM
- B14 — within 1.5-fold, 0.0013 µM
- B15 — 1.6-fold higher, 0.0028 µM

biological target: T2, human CX3CR1; experiment: periplasmic extract, A647-fractalkine competition FACS, CHO-huCX3CR1
Excerpt: as §1

Point of comparison: B6, “% block” value 86.6%. Against it:
- B1 — higher, 90.1%
- B2 — lower, 74.6%
- B3 — higher, 92.1%
- B4 — lower, 64.1%
- B5 — higher, 94.5%
- B7 — higher, 94.5%
- B8 — higher, 96.5%
- B10 — lower, 70.3%

Biological target: T1, cynomolgus CX3CR1
Experiment: A647-fractalkine competition FACS, HEK293T cynomolgus CX3CR1
Excerpt: as §1, §2

Point of comparison: B1, “% block” value 95%. Against it:
- B2 — lower, 92%
- B3 — lower, 89%
- B4 — lower, 91%
- B5 — higher, 100%
- B6 — lower, 91%
- B7 — lower, 92%
- B8 — the same, 95%
- B9 — higher, 100%
- B10 — higher, 96%

Point of comparison: B1, IC50 0.47 µM. Against it:
- B2 — 6.9-fold lower, 0.068 µM
- B3 — 1.6-fold lower, 0.3 µM
- B4 — 6.5-fold lower, 0.072 µM
- B5 — 2.3-fold lower, 0.2 µM
- B6 — 15-fold lower, 0.031 µM
- B7 — 10-fold lower, 0.045 µM
- B8 — 2.9-fold lower, 0.16 µM
- B9 — 3.9-fold lower, 0.12 µM
- B10 — 10-fold lower, 0.046 µM
